Experiment [1] concerns STAT3 phosphorylation (Tyr705), IL23R + IL12Rβ1. The experiment can be described thus: Phospho-STAT3 AlphaLISA Surefire Ultra assay, wildtype IL23R. The class given is cell-based, human. The settings on record: for Individual experimental means, phospho-STAT3 signal (Figure 6 panel b): IL-23 (5nM). An excerpt:
(§1) To test this, we created untagged and NanoLuc tagged versions of IL23R with the C115Y mutation. […] Using an intra-receptor NanoBRET assay to measure the basal association of receptor subunits (as previously described in Lay et al.[24]), we discovered that the […] mutant still associated with a fluorescently labelled HaloTag (HT) tagged IL12Rβ1 construct although this was reduced by 50.1% from the level of association measured for wildtype IL23R, a reduction consistent with the protein’s reduced total and surface expression (Fig. 6e).
Data are mean ± SEM from five or six (untagged) or three (NanoLuc tagged) independent experiments conducted in triplicate. For the IL23R + IL12Rβ1 data set, one outlier (11108.7) was detected using the Grubbs test (with alpha = 0.001) and removed from the statistical analysis. Statistical significance of the C115Y mutation on the alphaLISA data was assessed using a 2-way ANOVA with Tukey’s multiple comparison test. ***p < 0.001. The p value for the comparison of NL tagged construct response was 0.0001 and the p value for the comparison of untagged receptor was 0.951. c Luminescence signal measured when IL12Rβ1 was expressed with either NL-IL23R or the C115Y mutant. Data are mean ± SEM generated from the mean luminescence values of seven (C115Y) or eight independent experiments performed in pentuplicate. d The proportion of luminescence from c that emanated from extracellular protein (as defined by the reduction in luminescence after treatment with 60 μM NanoLuc extracellular inhibitor). Data are mean ± SEM generated from the mean luminescence values of five (C115Y) or six independent experiments performed in triplicate. e The BRET ratio generated from HaloTag-618 labelled cells expressing NL tagged wildtype or C115Y IL23R with HT-IL12Rβ1 or unlabelled IL12Rβ1. […] Statistical significance of differences in mean values shown in c–e were measured using a 2-sided, non-paired t test with ** indicating a p value of <0.005 and *** indicating a p value of <0.0005. […]
On the technique in general: Bead proximity is the source of the signal in Alpha formats.

Experiment [2] concerns STAT3 phosphorylation (Tyr705), C115Y IL23R + IL12Rβ1. The experiment can be described thus: Phospho-STAT3 AlphaLISA Surefire Ultra assay, C115Y IL23R. The class given is cell-based, human. The settings on record: for Mean, phospho-STAT3 signal (Figure 6 panel b): 5 nM IL-23; for Individual experimental means, phospho-STAT3 signal (Figure 6 panel b): IL-23 (5nM).
Description: as §1
Data are mean ± SEM from five or six (untagged) or three (NanoLuc tagged) independent experiments conducted in triplicate. For the IL23R + IL12Rβ1 data set, one outlier (11108.7) was detected using the Grubbs test (with alpha = 0.001) and removed from the statistical analysis. Statistical significance of the C115Y mutation on the alphaLISA data was assessed using a 2-way ANOVA with Tukey’s multiple comparison test. ***p < 0.001. The p value for the comparison of NL tagged construct response was 0.0001 and the p value for the comparison of untagged receptor was 0.951. c Luminescence signal measured when IL12Rβ1 was expressed with either NL-IL23R or the C115Y mutant. Data are mean ± SEM generated from the mean luminescence values of seven (C115Y) or eight independent experiments performed in pentuplicate. d The proportion of luminescence from c that emanated from extracellular protein (as defined by the reduction in luminescence after treatment with 60 μM NanoLuc extracellular inhibitor). Data are mean ± SEM generated from the mean luminescence values of five (C115Y) or six independent experiments performed in triplicate. e The BRET ratio generated from HaloTag-618 labelled cells expressing NL tagged wildtype or C115Y IL23R with HT-IL12Rβ1 or unlabelled IL12Rβ1. Data are mean ± SEM generated from the mean BRET values of three independent experiments performed in pentuplicate. Statistical significance of differences in mean values shown in c–e were measured using a 2-sided, non-paired t test with ** indicating a p value of <0.005 and *** indicating a p value of <0.0005. The p values for the results shown in c, d and e were p = 0.148, 0.0005 and 0.0013 respectively. Source data are provided as a Source Data file.
Phosphorylation of STAT3 was measured using an AlphaLISA Surefire Ultra assay as previously described. Briefly, transfected HEK293T cells were plated into a poly-D-lysine coated 96 well tissue culture microplate and then incubated overnight. The following day media was replaced with serum free DMEM and the cells incubated for 3 h. […] An AlphaLISA SureFire Ultra assay kit (Perkin Elmer #ALSU-PST3) was then used to measure STAT3 phosphorylation at residue Tyr705. Assays were performed according to the manufacturers’ instructions.

In experiment [3] the target is T1, NL-IL23R and IL12Rβ1 (IL-23 receptor) on HEK293T cells (Homo sapiens, UniProt P42701+Q5VWK5).
T1 construct: expressed in transfected cells; host or cells: HEK293T (ATCC CRL-3216), transient transfection
T1 sequence (Q5VWK5 24-629, other chains not shown): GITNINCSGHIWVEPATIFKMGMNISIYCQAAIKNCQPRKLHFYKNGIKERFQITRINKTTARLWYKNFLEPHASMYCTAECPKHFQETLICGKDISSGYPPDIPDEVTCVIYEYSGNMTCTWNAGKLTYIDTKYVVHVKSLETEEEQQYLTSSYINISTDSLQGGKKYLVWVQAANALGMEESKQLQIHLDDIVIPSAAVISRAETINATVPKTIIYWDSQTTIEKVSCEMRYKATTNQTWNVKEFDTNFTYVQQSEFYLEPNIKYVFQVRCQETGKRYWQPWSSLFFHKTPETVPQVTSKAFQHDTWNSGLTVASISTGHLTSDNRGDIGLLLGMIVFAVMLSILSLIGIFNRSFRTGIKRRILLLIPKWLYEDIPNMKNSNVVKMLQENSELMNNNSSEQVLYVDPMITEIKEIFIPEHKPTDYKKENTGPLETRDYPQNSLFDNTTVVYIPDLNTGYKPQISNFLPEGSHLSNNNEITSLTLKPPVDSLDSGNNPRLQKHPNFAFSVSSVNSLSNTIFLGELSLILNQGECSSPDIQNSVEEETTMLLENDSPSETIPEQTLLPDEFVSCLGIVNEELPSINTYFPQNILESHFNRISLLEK
The experiment can be described thus: IL23-TMR NanoBRET competition assay. The arrangement: Inhibition of IL23-TMR binding (Mean): unit not given here. The settings on record: for Inhibition of IL23-TMR binding (Mean): 300 pM IL23-TMR. The class given is binding. The method, then: Schematic created with Biorender.com. IL23R is shown in orange, IL12Rβ1 in purple, IL23p19 in blue, IL12p40 in green and the presence of a TAMRA fluorophore by a pink star. […] In b and c, data are mean ± SEM from 5 independent experiments conducted in either duplicate or triplicate. Details on absolute number of data points included for each concentration are provided in the associated Source Data file.
(§2) Transient transfections for experiments outlined in Fig. 6 were conducted by seeding 100 μL of 2 × 10^5 cells/ml concentrated HEK293T cells into poly-D-lysine (PDL) coated white 96 well clear bottom assay microplates (Greiner) and incubating overnight. The following day transfection mixes were made up that contained a 4:1 ratio of IL23R to IL12Rβ1 constructs to a total concentration of 100 ng per well with a 0.3 μL per well of FuGENE HD transfection reagent (Promega) in OptiMEM (Gibco). These mixtures were incubated for 10 min before being added to the plate at 5 μL per well. The cells were then incubated overnight to allow expression. For all other experiments 2 mL containing 4 × 10^5 cells were seeded into 6 well plates and incubated 5 h before being transiently transfected with 100 μL per well of a transfection mix containing 2 μg of DNA and 6 μL of FuGENE HD. These cells were then incubated overnight before being re-suspended the following day and seeded into PDL coated white assay microplates at 100 μL containing 3 × 10^4 transfected cells. Cells were then incubated overnight before the experiment. Estimates of total expression levels for the different NL-constructs were made by comparing the luminescence levels achieved to that of a NanoLuciferase standard curve measured under the same conditions (Supplementary Fig. 1).
Media was removed from white 96-well microplates containing transfected cells and replaced with fluoroprobe in the presence or absence of antagonist in 50 μL Hanks Balanced Salt Solution (HBSS) with 1 mg/mL BSA (Merck).
(§3) Antagonist competition data were fit with the equation:4 Y=Bmin+Bmax−Bmin/1+10^(LogXC50−[A])C Where ‘Bmax’ is the maximum BRET signal, ‘Bmin’ is the minimum BRET signal, ‘LogXC50’ is the log of the 50% inhibiting concentration of antagonist, ‘[A]’ is the concentration of antagonist and ‘C’ is the Hill slope.
(In general: In BRET a luciferase serves as donor, and the signal depends on an acceptor being close.)

Experiment [4] addresses T1, NL-IL23R and IL12Rβ1 (IL-23 receptor) on HEK293T cells. The experiment can be described thus: P630-TMR NanoBRET competition assay. The class given is binding. The settings on record: for Displacement of 75 nM P630-TMR (Mean): Fig. 5a. The procedure:
as §2
Media was removed from white 96-well microplates containing transfected cells and replaced with fluoroprobe in the presence or absence of antagonist in 50 μL Hanks Balanced Salt Solution (HBSS) with 1 mg/mL BSA (Merck). After a 1-hour incubation at 37 °C without CO2, 5 μL of HBSS containing 77 μM furimizine was added to each well (final concentration 7 μM), the plate incubated for 5-minutes and the BRET signal measured using a PheraStar FS plate reader (BMG Labtech; data acquisition software version 5.41; MARS analysis software version 3.32) with a 450 ± 30 nm and >550 nm long pass filters.
as §3

This note sets out measurements from article PMC10199020 (Nature Communications, 2023).

Several values for one entry are separate records, joined by “and”; a condition that tells them apart may be missing. Equal values may be shown once. Entries after “also recorded” stand apart in the source; their conditions may differ.

Turning to “IL-23: heterodimeric cytokine, disulphide linked complex of IL12p40 and IL23p19”, the “Mean, phospho-STAT3 signal (Figure 6 panel b)” value in experiment [1] (5 nM IL-23, transfection NL-IL23R + IL12Rβ1, N 3) amounted to 5562.78; in experiment [2] (transfection IL23R (C115Y) + IL12Rβ1, N 6), 1388.06; in experiment [2] (transfection NL-IL23R (C115Y) + IL12Rβ1, N 3), 1262.44. In addition, the “Individual experimental means, phospho-STAT3 signal (Figure 6 panel b)” value is 2394 and 1760.67 and 1431.33 and 2064.67 and 2014 in experiment [1] (transfection IL23R + IL12Rβ1); 2330.67 and 6586.67 and 7771 in experiment [1] (transfection NL-IL23R + IL12Rβ1); 1279.33 and 1494.67 and 1589.67 and 1247.67 and 1140 and 1577 in experiment [2] (transfection IL23R (C115Y) + IL12Rβ1); 760 and 1260.33 and 1767 in experiment [2] (transfection NL-IL23R (C115Y) + IL12Rβ1).
With “TEEEQQLY [octapeptide reported to be a negative allosteric modulator (NAM) of the IL-23 receptor]”, the “Inhibition of IL23-TMR binding (Mean)” value is 13.433 in experiment [3] ([TEEEQQLY] -4.56864 logM); 6.927 in experiment [3] ([TEEEQQLY] -5.04576 logM); 9.9603 in experiment [3] ([TEEEQQLY] -5.52288 logM); 11.7979 in experiment [3] ([TEEEQQLY] -6 logM); 6.708 in experiment [3] ([TEEEQQLY] -6.47712 logM); 2.6729 in experiment [3] ([TEEEQQLY] -6.95424 logM). In addition, the “Inhibition of IL23-TMR binding (Mean)” value stood at 2.475 in experiment [3] ([TEEEQQLY] -7.43136 logM) and 7.532 in experiment [3] ([TEEEQQLY] -7.90849 logM). Besides, the “Displacement of IL23-TMR” value in experiment [3] (NL-IL23R and IL12Rβ1) is “not to displace IL23-TMR; also recorded: Did not displace labelled probe”. Besides, the “Displacement of 75 nM P630-TMR (Mean)” value in experiment [4] ([TEEEQQLY] -4.09691 logM) is on record as -0.7672; in experiment [4] ([TEEEQQLY] -4.79588 logM) it was 3.824; in experiment [4] ([TEEEQQLY] -5.49485 logM), 1.157; in experiment [4] ([TEEEQQLY] -6.19382 logM), -2.412; in experiment [4] ([TEEEQQLY] -6.89279 logM), -1.937; in experiment [4] ([TEEEQQLY] -7.59176 logM), -4.432. The “Displacement of 75 nM P630-TMR (Mean)” value in experiment [4] ([TEEEQQLY] -8.29073 logM) is -0.4835; in experiment [4] ([TEEEQQLY] -8.9897 logM), -1.857. Moreover, in experiment [4] (NL-IL23R and IL12Rβ1), the “Displacement of P630-TMR” value was “did not displace P630-TMR; also recorded: Did not displace labelled probe”.
